From the DeepSol protein solubility set

Assay: soluble on expression in E. coli; label from the status in PepcDB or PDB records

Sequence | soluble on expression in E. coli
MKLRANIIEKRGTLQVIVSYKDSNGKIRQKWKDTKLKKKGNKKRAEKIRDEFLLELESQLAMECECANPDLLFYDYLLNYLEVSKKQVAFNTYVGYKHYVHNRIYKFFYPKKIKLNRLKPYHLQDFYQYMLNDDCTANTVIHYHAFIRKALQEAVITELISTNVADKVRKPKKKQFVSQVYNQHEILKLLDILSEEKLYLVVLLTAFYGLRRSEVLGLKWSAIDFLNKKIMINHVIIENPENMSQLIKKDQTKNSSSYRTLPLVETIERALVNQAKWQQDNRILLGEDYILKDSEYVFTMEDGRLMKPQYVTHRLSKLIKKNGLKKIRFHDLRHSNASIMLDSGQNMKSIQEWLGHASYSTTANLYTHLTAGVKERAAEALENAFGFKE | not soluble
MQFQRARSDKQKNIRMSEIVNATINLYESLQYDKITLALIAKQLSFSRANLYKYVSTKEEIFLLIISGDIENWSKEVVKFFDKYDALSAEEFCKLWSELLYRHKRIIELFCILNTIIARNVSAEKLAAFKKQIHKDFTRTKKVVKRFFPFMSKEQLKFFIEYQMKYAVGVYPATIINDVQKKASELSGIPSNVKDFESSFSKFLMVILNGIEITI | not soluble
MSLTKIVLITGANKGIGFETAKQIGKNGWTLLISTRNEERGKNAVHQLQQDGITAEWLQIDLNDIASIHKAARYVEERYPKLDGLINNAGISGDMQKNPLELKSSELEQLAKVNFLGNFEMIKSFTPILSRNHGRILNVTIPATPIGSFNPLGYLASKASLNSMIKSFAMYYKKHEIPVEIFGVLPGGISTDLNQHQSGLLIRTVQEGGESIAKVMMDRHNHQGKLLMRMGLTQLARNFVFRRHDEGHHHHHH | not soluble
MGSDKIHHHHHHMNKPCIISVAITGSLPRKKDNPAVPITVSEQVESTQAAFEAGATLVHLHVRNDDETPTSNPDRFALVLEGIRKHAPGMITQVSTGGRSGAGNERGAMLSLRPDMASLATGSVNFPTRVYDNPPELVDWLAAEMKTYGIKPEVEAFDLSMIFQAAAMQAAGAIVGPLHIQFVMGIKNAMPVDREVLEFYVQTLKRLSPDATWTGAGIGRHQLTMARWSLELGGHCRTGLEDNVRLDKNTLAPSNAALVRQVAELCEEYGRPVATAAQAREIMSLG | not soluble
MSLKTFLESLKFPVQEVNKKSSGEKGPGRPPYWEMVFYWTRKPLVGARSVIAGALLPENVDENLFKAAVRLSSPTPHRENPQIPAEFAKYFEGKKLLDPFAGFGSIPLEGLRLGLDVTAVELLPTTYIFLKAVLEYPKKFGKSLVKDVERWGEWITEQLKNDPEIRELYDDDVAVYIGTWEIRCPHCGRWTPAIGNFWLARVKEGHHHHHH | soluble
MEYFNVGKIVNTQGLQGEMRVLSVSDFAEERFKKGSQLALFDDKDRFVQEVTIVSHRKQKHFDIIKFKDMYHINAIEKYKGYTLKVSKDNQGDLQEGEFYYHQIIGMAVYEKDVLIGHVKEILQPGANDVWIVKRQGKRDLLLPYIPPVVLNVDVPNKRVDVELMEGLDDED | not soluble
IEYETHFFNEVTYLVDYLKVKALMMIPKNKKDIKRIVIYLRGGKGQVGRVRAARLMQFANEYTLVIGPYYRGNNGSEGRDEFYRGDLNDVTHLIRLLNQNYPSAFIHMVGFSRGGLQGLLTFNDLPVDSYMIWGGVSDIHLMYEERVDLRGMLRRMVGHPKKDAKAYKSRDAMQFIKKDSPPILIIHGGKDIQVGIHQAYDLEKKLKSKGIYYQTYYQLDEGHVPRPPAMRDVIRYIHQWMNNVENKN | not soluble
MAHHHHHHMLRFTVPALVVFQNAYAPRVLNRMTPDRMELTMLILKERKKKVRYLGSNFQGFNDRVHLFNAQGGVRRGTRYIIETHHNRIQFKHRSRNNSMVDVRAVKMAGSQYDSIGNYTRMTWDNSLCTTNLLSDPNFKRHFKNMPKEETIGVLEEWGVRYILLDEIRKPSLMDCKYHKHHLYADKFWWSPSPETNHMRGDAEFKWKGNELIAYGDYNAHMQHPANFVTSSSSGSSGSGAATSKSAAAAAGSKKGASARPWFRRTVVVRKSQASDTKPLSTASKIAAAGTSK | soluble
MSLTTILDIAKLAGVAKSTVSRYLNGGSVSEPTRQKIERVIKETGYIPNAFAQSLKAKQTNFIGTIVPRLDSFAASRTVMGIDDELKSLGYQMLMSNTDQSVEREIETIYNLANQKIAGVILLATVITKEHLNAFREVGIPTLLVGQEHTEVPCLIHDDFKAGYEMGKHVLSKGHKRIAYLGVGEHDIAVGVKRKEGFKQAMAEHGPCEVAYFETSFSMQDSFRVSPKMIETYQPSALVCATDNIALGALKGAYSIGMNVPKDLSITGFGGYEVTGIIHPSLTTVNFHFKAAGKMAARKMIKLMNGEEVNHLTRMDVELIERESVDNEGHHHHHH | soluble
MSKISQQNSTPGVNGISVIHTQAHASGLQQVPQLVPAGPGGGGKAVAPSKQSKKSSPMDRNSDEYRQRRERNNMAVKKSRLKSKQKAQDTLQRVNQLKEENERLEAKIKLLTKELSVLKDLFLEHAHNLADNVQSISTENTTADGDNAGQ | soluble
MSLNSQGYAVVDFETTGLSPAKGDRAIEIGLVHVAPDGTLEDEHETLIHVDRSVGASWVHHITARELLHAPDFEGIAHELRDLLAGRVFVAHNVSFDSRFLLAEYSRMGASIPVDQSTMLCTMKLSRSLIGRGKLADCCEYFGIANEDAHSALSDAHATAILLGRLLEADPKWPGFQRRLDAAGAAAEQWPTFATLPKKEWLPRGTHLAEGHHHHHH | soluble
MAESLITKKAIAGGLMELCQHKRFEKISIADITNICGLNRQTFYYHFTDKYDLLTWTYENDFFHCLADGITLENWDKHVLKMLESIKENADFYKNTVSADASILSFCFSKLTNSLFMDLFEKIDTNGAVNEADRVFYAEFFSYGCSGVLIKWITRGFKEAPETIANQLFRLAKDTEFLANSMYRENLEHHHHHH | soluble
MGALESLRGNADLAYILSMEPCGHCLIINNVNFCRESGLRTRTGSNIDCEKLRRRFSSLHFMVEVKGDLTAKKMVLALLELARQDHGALDCCVVVILSHGCQASHLQFPGAVYGTDGCPVSVEKIVNIFNGTSCPSLGGKPKLFFIQACGGEQKDHGFEVASTSPEDESPGSNPEPDATPFQEGLRTFDQLDAISSLPTPSDIFVSYSTFPGFVSWRDPKSGSWYVETLDDIFEQWAHSEDLQSLLLRVANAVSVKGIYKQMPGCFNFLRKKLFFKTSHHHHHH | soluble
MSLQLLLVDDEEDANEELAELLEGEGFCCFTASSVKMALHQLTAHPDIALVITDLRMPEESGIQLIRHLREHTSRQHLPVIVTSGHADMDDVSDLLRLHVLDLFRKPIYHVRLLETLNNLFPEPKIFQEGHHHHHH | soluble
MVQLNGKVAIVTGGAKGIGKAITVALAQEGAKVVINYNSSKEAAENLVNELGKEGHDVYAVQADVSKVEDANRLVEEAVNHFGKVDILVNNAGITRDRTFKKLNREDWERVIDVNLSSVFNTTSAVLPYITEAEEGRIISISSIIGQAGGFGQTNYSAAKAGMLGFTKSLALELAKTNVTVNAICPGFIDTEMVAEVPEEVRQKIVAKIPKKRFGQADEIAKGVVYLCRDGAYITGQQLNINGGLYM | not soluble
MSLSNYSTGELAKLCNVTTRTIQYYDRKGILKPQGFTEGKRRVYTEQQRQTLELILLLKDLGCALSDIDMLLKGEGTLKTLNTLLTMKQQEINQQVKQQQAVLNKIKNVQYYVNEGHHHHHH | not soluble
MKMFNIASEDDIKKGLASDVYFERSISTLTETCKDHRVAMEATVSGPLDTWINFSGLDEVLKLLEGIDVDVFAIPEGTILYPRDSNGIPVPFIRIEGNYCDFGMYETSILGMICQASGISTKSSKVRIAAGDCPFFSFGIRRMHPAVSPMIDRSAFIGGADGVSGILGAKLIGEEPIGTMPHALSIILGDDEAWRLTLKNTKNGQKSVILIDTYMDEKFAAIKVAEEFEHVDYIRLDTPSSRRGNFEALVREVKWELALRGRSDIKIMVSGGLDENTVAKLREAGAQAFGVGTSISSAKPFDFALDIVSIDDKPKTKRGKLSGKKSVLRCEKCRKVEVVPYGVESKPCSCGGVMHNIIVKYMEHGKLLSQYPEPKEIRKRTLSELEYFRSSN | soluble
MLIYEGHIDKLIRRGQEKGLDIYNLIRTAVFNPVEHYGLNVGLLREGDPADFIIVDNLKSFNILSTFIDGECVYENGKVLFPLEHHHHHH | not soluble
